This passage reports absorbance signal and koff results from US7122646.

Test [1] deals with hen egg lysozyme (hen) (UniProt P00698). Briefly: phage ELISA with 50 µl phage supernatant, sheep anti-M13 detection; background 0.1. For orientation: An ELISA detects its analyte on a solid surface through an enzyme-linked reagent.
Test [2] shares this target. Kind of test: BIAcore, HEL coated chip. Background: Surface plasmon resonance follows binding to a sensor surface in real time, without labels.

Chain of UniProt P00698 (P00698 19-147 limits assumed): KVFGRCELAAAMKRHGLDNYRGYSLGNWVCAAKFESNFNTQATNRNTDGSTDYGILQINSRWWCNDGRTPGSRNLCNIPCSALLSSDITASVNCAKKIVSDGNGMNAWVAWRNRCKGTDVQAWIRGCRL

Turning to “NQ11/D1.3/0 bispecific diabody displayed on the surface of phage (bispecific antibody)”, in the test with hen egg lysozyme (hen) [1], the absorbance signal came to 2.8.

With “bispecific NQ11/D1.3 diabody, construct VI, 5 residue linkers (bispecific antibody)”, the off-rate constant (koff) – broadly, the rate constant with which the complex falls apart – with hen egg lysozyme (hen) [2] came to 0.0022 s⁻¹.

chimaeric D1.3 Fab fragment displayed a koff with hen egg lysozyme (hen) [2] of 0.003 s⁻¹.
